Experimental data published in article PMC11139879.

Legend:
[1] = biological target: T1, pP1192R DNA topoisomerase II, full-length (African swine fever virus, UniProt A0A2X0THW2 1-1192); assay: cryo-EM; conditions: protein: recombinant; tags: C-terminal 8xHis; chain copies: 2; blunt
[2] = biological target: T1, pP1192R DNA topoisomerase II, …; assay: EMSA; conditions: protein: recombinant; tags: C-terminal 8xHis; chain copies: 2; label: 5'-Cy5 on O1; four-way junction of O1-O4
[3] = biological target: T1, pP1192R DNA topoisomerase II, …; assay: size exclusion chromatography; conditions: protein: recombinant; tags: C-terminal 8xHis; chain copies: 2; four-way junction of O1-O4

B1: 52 bp dsDNA (G-segment) (dsDNA)
DNA 1: ATGCATATATATGTATATGTATGTGTGTATATATACACATATATATATATAT
DNA 2: ATATATATATATATGTGTATATATACACACATACATATACATATATATGCAT
B1: binds [1].

B2: four-way junction DNA, Cy5 (structured_DNA)
DNA 1: CTGGACGCAATCTGACAATGCGCTCATCGTCATCCTCGGCACGCGCCG
DNA 2: CGGCGCGTGCCGAGGATGACGATGAGATAGGCGTTAACGCGGCCTA
DNA 3: TAGGCCGCGTTAACGCCTATTTGCCCGGGAGTACCGGCATTCCT
DNA 4: AGGAATGCCGGTACTCCCGGGCAACGCATTGTCAGATTGCGTCCAG
B2: binds [2].

B3: four-way junction DNA (structured_DNA)
DNA 1: CTGGACGCAATCTGACAATGCGCTCATCGTCATCCTCGGCACGCGCCG
DNA 2: CGGCGCGTGCCGAGGATGACGATGAGATAGGCGTTAACGCGGCCTA
DNA 3: TAGGCCGCGTTAACGCCTATTTGCCCGGGAGTACCGGCATTCCT
DNA 4: AGGAATGCCGGTACTCCCGGGCAACGCATTGTCAGATTGCGTCCAG
B3: binds [3].
